Source: patent US20150239980A1 (NEOTOPE BOSCIENCES, published 2015)

B1: human MCAM domain 1 (amino acids 19-129), Fc-tagged (Fc fusion, not shown: a dimerising Fc or GST)
chain: PRVAGVPGEAEQPAPELVEVEVGSTALLKCGLSQSQGNLSHVDWFSVHKEKRTLIFRVRQGQGQSEPGEYEQRLSLQDRGATLALTQVTPQDERIFLCQGKRPRSQEYRIQ
notes: also called MCAM Fc domain 1
B2: mouse MCAM expressed on transfected CHO cells (receptor, UniProt Q8R2Y2 24-648, looked up)
chain: VPGEEKQPVPTPDLVEAEVGSTALLKCGPSRASGNFSQVDWFLIHKERQILIFRVHQGKGQREPGEYEHRLSLQDSVATLALSHVTPHDERMFLCKSKRPRLQDHYVELQVFKAPEEPTIQANVVGIHVDRQELREVATCVGRNGYPIPQVLWYKNSLPLQEEENRVHIQSSQIVESSGLYTLKSVLSARLVKEDKDAQFYCELSYRLPSGNHMKESKEVTVPVFYPAEKVWVEVEPVGLLKEGDHVTIRCLTDGNPQPHFTINKKDPSTGEMEEESTDENGLLSLEPAEKHHSGLYQCQSLDLETTITLSSDPLELLVNYVSDVQVNPTAPEVQEGESLTLTCEAESNQDLEFEWLRDKTGQLLGKGPVLQLNNVRREAGGRYLCMASVPRVPGLNRTQLVSVGIFGSPWMALKERKVWVQENAVLNLSCEASGHPQPTISWNVNGSATEWNPDPQTVVSTLNVLVTPELLETGAECTASNSLGSNTTTIVLKLVTLTTLIPDSSQTTGLSTLTVSPHTRANSTSTEKKLPQPESKGVVIVAVIVCTLVLAVLGAALYFFYKKGKLPCGRSGKQEITLPPTRKSEFVVEVKSDKLPEEMALLQGSNGDKRAPGDQGEKYIDLRH
notes: whole, on cells; also called murine MCAM
B3: anti-MCAM monoclonal antibody clone 15 (antibody, V domains shown)
VH: EVRLVESGGGLVQPGKSMKLSCVASGFKFSNYYMSWVRQAPAKGLEWVASISDGGGDTFCRDLVKGRFTISRDNAKSTLYLQMDSLRPEDTATYYCARRGAAMGGVMDAWGQGTSVTVSS
VL: DIVMTQSPSSLAVSAGETVSIHCKSSQSLLYSGTQKNYLAWFQQKPGQSPKLLIFWASTRQSGVPDRFIGRGSGTDFTLTISGVQAEDLAIYYCQQYYDTLTDTFGAGTKLELKR
notes: rat monoclonal raised against murine MCAM-Fc; also called Anti-MCAM Clone 15; anti-mouse MCAM clone 15

Experiments:
[1] = molecular target: T1, recombinant human laminin 511 (Biolamina) (human, UniProt O15230 36-3695; P07942 22-1786; P11047 34-1609); experiment: SPR, Biacore T200
T1 construct: negative control; also called laminin 10 (α5β1γ1)

[2] = molecular target: T2, Recombinant human laminin-α4 (R&D systems) (human, UniProt Q16363-2 826-1816); experiment: SPR, Biacore T200
T2 construct: also called laminin α-4 chain
T2 sequence (looked up): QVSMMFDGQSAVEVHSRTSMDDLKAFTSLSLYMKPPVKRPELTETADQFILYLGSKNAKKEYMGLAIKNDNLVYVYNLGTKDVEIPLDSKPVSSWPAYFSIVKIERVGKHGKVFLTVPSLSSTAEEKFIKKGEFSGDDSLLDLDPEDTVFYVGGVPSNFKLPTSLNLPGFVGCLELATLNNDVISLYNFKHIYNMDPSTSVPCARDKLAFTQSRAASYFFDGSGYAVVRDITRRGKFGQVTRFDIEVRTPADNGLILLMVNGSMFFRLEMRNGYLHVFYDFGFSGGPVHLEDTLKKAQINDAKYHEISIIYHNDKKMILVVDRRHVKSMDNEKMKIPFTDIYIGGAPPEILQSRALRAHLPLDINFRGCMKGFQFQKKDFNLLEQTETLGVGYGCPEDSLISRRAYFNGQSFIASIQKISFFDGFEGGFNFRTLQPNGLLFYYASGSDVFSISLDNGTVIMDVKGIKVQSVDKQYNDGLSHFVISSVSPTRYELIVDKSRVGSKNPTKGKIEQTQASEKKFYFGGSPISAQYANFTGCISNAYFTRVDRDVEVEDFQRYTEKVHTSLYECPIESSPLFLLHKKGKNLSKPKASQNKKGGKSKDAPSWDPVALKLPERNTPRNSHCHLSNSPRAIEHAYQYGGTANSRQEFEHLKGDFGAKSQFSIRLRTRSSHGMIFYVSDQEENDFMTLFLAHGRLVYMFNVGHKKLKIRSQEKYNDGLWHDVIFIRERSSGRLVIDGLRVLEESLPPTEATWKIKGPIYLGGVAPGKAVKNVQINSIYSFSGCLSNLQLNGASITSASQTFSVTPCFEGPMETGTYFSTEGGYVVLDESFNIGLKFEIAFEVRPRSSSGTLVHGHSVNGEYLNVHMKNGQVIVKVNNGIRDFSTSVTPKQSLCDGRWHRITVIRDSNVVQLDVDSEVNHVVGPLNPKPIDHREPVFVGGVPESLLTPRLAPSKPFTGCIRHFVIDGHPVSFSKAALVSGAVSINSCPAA

[3] = molecular target: T1, recombinant human laminin 511 …; experiment: flow cytometry, mouse MCAM CHO cells, pan-laminin antibody
[4] = molecular target: T3, human MCAM (melanoma cell adhesion molecule) expressed on transfected CHO cells (human, UniProt P43121 24-646); experiment: flow cytometry, human MCAM transfected cells mixed with CFSE-labelled untransfected cells
T3 construct: also called hMCAM; CD146
T3 chain: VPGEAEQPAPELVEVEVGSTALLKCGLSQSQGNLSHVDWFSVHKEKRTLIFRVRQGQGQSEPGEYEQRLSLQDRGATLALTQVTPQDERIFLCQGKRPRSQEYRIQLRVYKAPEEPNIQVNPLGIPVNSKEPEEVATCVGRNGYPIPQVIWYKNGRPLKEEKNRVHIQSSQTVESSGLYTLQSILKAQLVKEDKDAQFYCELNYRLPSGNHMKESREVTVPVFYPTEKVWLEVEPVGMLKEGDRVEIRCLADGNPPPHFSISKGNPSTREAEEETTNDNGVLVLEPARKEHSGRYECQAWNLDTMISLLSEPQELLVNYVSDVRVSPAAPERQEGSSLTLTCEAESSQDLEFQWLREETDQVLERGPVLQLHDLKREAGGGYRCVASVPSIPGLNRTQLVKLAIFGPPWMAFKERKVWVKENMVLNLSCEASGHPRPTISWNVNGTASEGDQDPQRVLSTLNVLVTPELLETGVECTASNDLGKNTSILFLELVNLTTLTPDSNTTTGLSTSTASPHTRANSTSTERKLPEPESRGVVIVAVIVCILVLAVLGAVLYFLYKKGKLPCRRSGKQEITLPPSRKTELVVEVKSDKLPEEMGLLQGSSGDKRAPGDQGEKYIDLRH

[5] = molecular target: T4, murine MCAM-Fc fusion protein (mouse, UniProt Q8R2Y2 24-563); experiment: ForteBio Octet Red, anti-human IgG Fc (AHC) biosensors loaded with mouse MCAM-hFc proteins (5 ug/ml), dipped into antibody (5 ug/ml) or SP2 media
T4 construct: extracellular domain; produced in CHO cells; also called mouse MCAM-Fc; mouse MCAMhFc; not shown: fused to human IgG
T4 sequence (looked up): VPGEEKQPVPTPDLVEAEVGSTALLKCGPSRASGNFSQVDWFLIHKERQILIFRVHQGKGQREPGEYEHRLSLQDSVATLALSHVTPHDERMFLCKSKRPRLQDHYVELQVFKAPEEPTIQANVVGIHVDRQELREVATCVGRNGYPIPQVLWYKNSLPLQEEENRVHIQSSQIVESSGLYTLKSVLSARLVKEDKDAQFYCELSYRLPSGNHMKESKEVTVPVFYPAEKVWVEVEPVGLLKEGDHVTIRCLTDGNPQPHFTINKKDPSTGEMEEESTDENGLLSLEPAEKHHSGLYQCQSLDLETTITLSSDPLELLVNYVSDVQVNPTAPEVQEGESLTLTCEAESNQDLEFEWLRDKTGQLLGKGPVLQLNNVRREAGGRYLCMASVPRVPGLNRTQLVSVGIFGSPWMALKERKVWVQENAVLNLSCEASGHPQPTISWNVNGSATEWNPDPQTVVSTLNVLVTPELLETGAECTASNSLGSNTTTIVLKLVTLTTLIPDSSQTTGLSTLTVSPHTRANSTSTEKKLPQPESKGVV
Excerpt: (§1) The following protocol was used: ForteBio Domain Mapping Protocol. ForteBio anti-human IgG Fc biosensors were used to immobilize various mouse MCAMhFc domains including full length mouse MCAMhFc protein on to biosensor surface. These sensors were dipped into either clone 15 or 17 MCAM specific antibody for detection of binding to these domains or full length protein. After loading these samples into a black 96 well plate, the Octet Red was programmed as follows: 60 seconds for baseline #1; 180 seconds for loading various domains; 60 seconds for baseline #2; 180 seconds for association of antibody to domain; and 240 seconds for dissociation of antibody from domain.
(§2) 1. Mouse MCAMhFc final concentration @ 5 ug/ml [0466] 2. Antibody clone 15 or 17 @ 5 ug/ml [0467] 3. ForteBio anti-human IgG Fc Capture (AHC) biosensors for kinetics experiments, cat#18-5060 [0468] 4. […] 5. ForteBio Octet Red machine [0470] 6. Fresh tissue culture medium, DMEM with 20% FCS, was used as buffer for dilution
(§3) For FIGS. 10A-B, clones 15 and 17 were tested against the following protein samples (all have human IgG Fc tag): Murine MCAM; Human Fc full length protein; Murine MCAM domain 1 (Ig1); Murine MCAM domain 2 (Ig2); and Murine MCAM domain 1 and 2 (Ig1-2A).

Ig2 domain = molecular target: T5, Ig2 domain (mouse, UniProt Q8R2Y2); experiment: as above
T5 construct: isolated domain 2; also called Murine MCAM domain 2 (Ig2) with human IgG Fc tag
T5 sequence (Fc fusion chain, looked up): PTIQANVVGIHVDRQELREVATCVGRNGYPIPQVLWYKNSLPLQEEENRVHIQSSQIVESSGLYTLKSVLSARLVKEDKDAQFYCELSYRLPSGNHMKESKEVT
Excerpt: as §1, §2, §3

[6] = molecular target: B2; experiment: flow cytometry, mouse MCAM transfected cells mixed with CFSE-labelled untransfected cells
Procedure: For the generation of antibodies capable of binding to murine MCAM, MCAM-Fc was generated by fusing the extracellular domain of murine MCAM to human IgG and produced in CHO cells using standard techniques. Lou/M rats were immunized with 100 μg of MCAM-Fc protein in CFA (1:1 volume). Rats were boosted two times at two week intervals with MCAM-Fc protein in incomplete Freund's adjuvant (IFA) (1:1 volume). Hybridomas were generated from immunized rats using standard protocols and clones were selected by Clonepix. CHO cells were transfected with the full length murine MCAM gene and selected for stable expression using neomycin and standard techniques. Parental CHO cells (MCAM negative) were fluorescently labeled with carboxyfluorescein succinimidyl ester (CFSE) using standard techniques and mixed at a 1:1 ratio with unlabeled MCAM transfected CHO cells. Hybridoma supernatants were incubated with this mixture of cells for 30 minutes and binding of potential MCAM specific antibodies was detected with a fluorescently labeled anti-rat secondary antibody (Jackson Immuno) by flow cytometry.

[7] = molecular target: T6, Murine MCAM domain 1 (Ig1) with human IgG Fc tag (mouse, UniProt Q8R2Y2 24-131, limits assumed); experiment: ForteBio Octet Red, domain-hFc on anti-human IgG Fc sensor
T6 construct: domain: domain 1 (Ig1); also called MCAM Fc domain 1; Fc domain 1 alone; not shown: human IgG Fc tag
T6 sequence (looked up): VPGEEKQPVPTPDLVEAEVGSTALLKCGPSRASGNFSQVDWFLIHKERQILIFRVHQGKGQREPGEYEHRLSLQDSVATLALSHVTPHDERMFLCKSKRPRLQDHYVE
Excerpt: as §1, §2

B1
binding result [1]: no binding (tested: 5-175 nM)
binding result [2]: no binding (tested: 5-175 nM)

B2
binding result [3]: no binding (tested: 10 µg/ml)

B3
binding result [4]: no binding
binding result [5]: binds
binding result (Ig2 domain): no binding (tested: 5 ug/ml)
binding result [6]: binds
binding result [7]: no binding (tested: 5 ug/ml)
